# According to IntAct's records for PubMed 20173742:
# B1: Kelch-like ECH-associated protein 1 (Mus musculus), Q9Z2X8 (parent)
# chain: MQPEPKLSGAPRSSQFLPLWSKCPEGAGDAVMYASTECKAEVTPSQDGNRTFSYTLEDHTKQAFGVMNELRLSQQLCDVTLQVKYEDIPAAQFMAHKVVLASSSPVFKAMFTNGLREQGMEVVSIEGIHPKVMERLIEFAYTASISVGEKCVLHVMNGAVMYQIDSVVRACSDFLVQQLDPSNAIGIANFAEQIGCTELHQRAREYIYMHFGEVAKQEEFFNLSHCQLATLISRDDLNVRCESEVFHACIDWVKYDCPQRRFYVQALLRAVRCHALTPRFLQTQLQKCEILQADARCKDYLVQIFQELTLHKPTQAVPCRAPKVGRLIYTAGGYFRQSLSYLEAYNPSNGSWLRLADLQVPRSGLAGCVVGGLLYAVGGRNNSPDGNTDSSALDCYNPMTNQWSPCASMSVPRNRIGVGVIDGHIYAVGGSHGCIHHSSVERYEPERDEWHLVAPMLTRRIGVGVAVLNRLLYAVGGFDGTNRLNSAECYYPERNEWRMITPMNTIRSGAGVCVLHNCIYAAGGYDGQDQLNSVERYDVETETWTFVAPMRHHRSALGITVHQGKIYVLGGYDGHTFLDSVECYDPDSDTWSEVTRMTSGRSGVGVAVTMEPCRKQIDQQNCTC
# partner: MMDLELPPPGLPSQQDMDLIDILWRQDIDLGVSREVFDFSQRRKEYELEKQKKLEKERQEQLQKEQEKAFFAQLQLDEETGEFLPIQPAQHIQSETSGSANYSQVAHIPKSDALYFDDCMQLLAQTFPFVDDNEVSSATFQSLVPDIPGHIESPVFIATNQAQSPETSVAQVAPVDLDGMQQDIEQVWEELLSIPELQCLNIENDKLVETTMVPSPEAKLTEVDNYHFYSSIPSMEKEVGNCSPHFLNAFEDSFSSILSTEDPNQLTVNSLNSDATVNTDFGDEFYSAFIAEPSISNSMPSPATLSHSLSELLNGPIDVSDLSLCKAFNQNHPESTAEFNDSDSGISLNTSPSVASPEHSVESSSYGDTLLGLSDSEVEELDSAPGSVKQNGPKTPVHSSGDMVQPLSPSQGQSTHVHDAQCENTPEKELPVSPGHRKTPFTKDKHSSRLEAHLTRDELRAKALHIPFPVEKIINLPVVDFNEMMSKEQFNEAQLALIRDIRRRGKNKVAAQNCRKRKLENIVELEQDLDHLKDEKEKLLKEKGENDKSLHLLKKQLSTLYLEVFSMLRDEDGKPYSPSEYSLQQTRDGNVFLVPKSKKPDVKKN
# Variants of: B1
# Conditions: with nf2l2_human NFE2L2, Q16236
row,Variant,effect of a mutation on the interaction
1,N382A,disrupting interaction
2,Y334A,disrupting interaction
3,S363A,disrupting interaction
4,R380A,decreasing interaction

# Further lines, results first:
row,effect of a mutation on the interaction,Variant
1,disrupting interaction,S602A
2,decreasing interaction,S555A
3,decreasing interaction,Q530A
4,disrupting interaction,S508A
5,disrupting interaction,R415A
